# Reference: the DeepSol protein solubility set
# Experiment: soluble on expression in E. coli; label from the status in PepcDB or PDB records
row,Sequence,soluble on expression in E. coli
1,MAVTKSSSLLIVGAGTWGTSTALHLARRGYTNVTVLDPYPVPSAISAGNDVNKVISSGQYSNNKDEIEVNEILAEEAFNGWKNDPLFKPYYHDTGLLMSACSQEGLDRLGVRVRPGEDPNLVELTRPEQFRKLAPEGVLQGDFPGWKGYFARSGAGWAHARNALVAAAREAQRMGVKFVTGTPQGRVVTLIFENNDVKGAVTADGKIWRAERTFLCAGASAGQFLDFKNQLRPTAWTLVHIALKPEERALYKNIPVIFNIERGFFFEPDEERGEIKICDEHPGYTNMVQSADGTMMSIPFEKTQIPKEAETRVRALLKETMPQLADRPFSFARICWCADTANREFLIDRHPQYHSLVLGCGASGRGFKYLPSIGNLIVDAMEGKVPQKIHELIKWNPDIAANRNWRDTLGRFGGPNRVMDFHDVKEWTNVQYRDISKL,soluble
2,MAYKKVLLAVNVYENADIVINSAVDFAKKNNTQVLKVVTVIDCVAPFAPSIVDFQHSIEQEAKEALDKLVTKISGIKVEHEVLVGNPAAEIVEYAEESNCDVIVLGSHATHGINLLLGSVANTVLHKAKCDVLTVRVNDDENADSKAHSYKRLLVPTDLENDSYVVVDKAKDIAKLYSAKIDTAFVIPNDSISLMTYETDKVETTLDKFAEKNGITGEKSVMIGGISNSLLEKAAENKNDLIVVGSHRRGAIGRFFLGSTANSILHQANVDVLVVRLK,soluble
3,MAYVKERIYESMFIIAPNVPEEERENLVERVKKIIEERVKGKIDKVERMGMRKFAYEIKKFNEGDYTVIYFRCDGQNLQELENFYRVTPEIIRWQTFRRFDLEKKERKAQREKAAAEATESSEGGSED,not soluble
4,MCAVLGDNSVSYNTMKFWFEKIKKKNYDLDDKPRSGRPRLDIDEDISRALEDDPRSMSREISATLKRPHTTIINHLHESGRVPKFGQLVPHNLSDSQKNLRCDLSLSLLTRKRTTDWVKDITTGDEKWVLYVNHTRKKQWVPVEEHAEPDLKGELHEKKVLLSIWWDSMGVIFRELLPDGATINADLYCIQLEKVVHAHQLHRPRGSKLLLLHDNARPHTALKTRQKLQTLGIEVLPHPPYSPDLAPTDYHLFRSLQNHLAGQKFHDRKAVETWLDDFFASKSQEFYAEGIAQLPLRWQEVIDTNGEYITH,not soluble
5,MCKNPISIIIRIQHNIKVLPEILKACEQLHPLEIILTINGYIDDSIDIAQSYNCKIITLEEPSELNNCYVIGATKAKGKYLLFLDANYIIQSSLLTQFLQPLLDESADIVLNNLDDFFYQKQKPTIEMIWQQVTNHFFHRPDLHVNSLLFPPYAITKEILDAITPESLLNPILAQMKIIKNKFRISNHFKISIPQIPSFPSKQLIRYHLEAIENWVNILQDSRGNYTDNNRRRDIILELQNGEQRAIPKIITGKKFYSNTYGNKQLSIIIPVQNEEKTIESIIFEVQKLKPLEIIIIVNGSTDKTEELAKNCGATVITYKEALGIDTGRAVGAYFAKGDILLFIDGDFLIPSSDLLPFVQSVQNGTDLALNKLEHYYMYRVPYTIVTACKHVVNLACNRKDLGMGSTTAVPHAFSRKCIDTIGFDSLLSPTLSQVKTILAGLHVQNVHSIDVDKINRVRPEKHFSQEGYLSLATQQIIGDHIEAISYLIEQKRNTEYFLEHHHHHH,not soluble
6,MCMDKNVMWLRERINKVIKALEENNMNGYLVNSKEELISKIEELTNSGDIVACGGSMSLFEAGVIDHLRSGRYEFLDRYKEGLKPEDIKKIYRDAFSSDVYFTSTNAITEEGEIYNVDGNGNRVAAMLYGPDKVIIVAGYNKIVENLSEAIQRNRRISAPANAKRLNKKTPCAKVGNCMDCKSPEKICREYTLIRSQSNSNRIHVIFLNEELGYLEHHHHHH,soluble
7,MCRHCHFLSAIAPVSGTNKSQPGNKWDMVLLVPFDGSALSKAALTRAMEFADYRDEDITALSVIPDDAAYAREHGWLDADEAFTVEAVADRMREQAESVAPAASFRYEVPEDVSSMASTTTNITRTIREVAHEEEASIVFIGSENAGRVSTPVCSVGSPVSEDPEYDVHIVRHP,not soluble
8,MCRLAVFALLAVAAVSVYGQPAGGQDVPPFLRNATPAQLQSFQQLIQANGHLTETALDGKVQAWVNQQGGKVAADWADFQKFIKGQQGQAEAAHQAAVSNFSPAAKKADADLTAISNDSSLSVQAKGQKIQAYLNSLPANVKAELEKAQGQ,soluble
9,MDAEEKMGVELSSPSAIMEHARRLYMSKDYRSLESLFGRCLWKSYNLDLWMLYIEYVRKVSQKKFKLFEVYEFTLGQFENYWDSYGLFKEYIEELGKIEDEQTRIEKIRNGYMRALQTPMGSLSELWKDFENFELELNKITGKKIVGDTLPLFQSSFQRYQQIQPLIRGWSVKNAARLIDLEMENGMKLGGRPHESRMHFIHNYILDSFFYAEEVYFFYSEYLIGIGQKEKAKKVVERGIEMSDGMFLSLYYGLVMDEEAVYGDLKRKYSMGEAESAEKVFSKELDLLRINHLNYVLKKRGLELFRKLFIELGNEGVGPHVFIYCAFIEYYATGSRATPYNIFSSGLLKHPDSTLLKEEFFLFLLRIGDEENARALFKRLEKTSRMWDSMIEYEFMVGSMELFRELVDQKMDAIKADAILPPLPPREHNVQMEGILGRYHCFLDSFNFLDLKIRDNSRLLDEFMENLPKISQQNNVLSNLRVEKVISLLKSVQ,soluble
10,MDAENEDFDGAEDSDHTDNDKKEDELSLDNVLRLGGTKADYVMLAGISDTTELINGGKKVIIDDLEEGELEDFIKQLGIRAYADQQIIQDEEDPASSEPTQKEGKKAKGSKVKEDAAPNVKNKVTPSTQATKTSVQSTNLANATGKKAKQKPANLFEFIPRQFLLIKPGGKWFDIEYTSEGTSVAQNESLTCQYKALAQKLYENETALYKSKKSLQKGANSAWMKTRKLRTFSQHPFEELEEKSSGNKDTRDRRLILWYFEHQLKLQIADFVVTLDELAHDMVEATKMRALTTAYELLCNQPEQEKLLLVQIVNKLEDA,soluble
11,MDAGLDARGKGWARAITRLCDEHLYYLMLYFRWFDEDSWRVLKPVFFGSLPFGVRDAVAWAMRRKVRATLRAQGLGVHGRDELLAFARDDLDALDGLLGQVPYYGGEHPCSADAAAYGILANLIEATLDTPLSHVARGYPRLVAYCERMRERVWSELEHHHHHH,not soluble
12,MDAIILQENIEGLLSLVRMLLPDGGSAGCVYLDDLSALQRSIHEKINDLYSQRGETPEQDATLCLAILQGYNVSMYANPEDEERKQAVLTRSLSLLDVLPPSLLKQQLSAVCYGMQELCEIN,not soluble
13,MDALSRLLTLNAPQGSIDKNCPLGGDWQLPHAAGELSVIRWHTVTQGEAQLEMPTGDAMTLTPGKVVILPQNSAHRLRQSGESPTHIVCGSLRLHTTSRYFLTALPEVLCLAPPPHSPASIWINATILLLQQESERHLPGADVLYSQQCATLFTLAVRDWLSQAGTAKSVLNLLLHPRLGRVILHMLETPAHPWTVETLAQRVHMSRASFAQLFRDVSATTPLAVLTTLRLQIAAQTLSREVLPVMVIAESVGYASESSFHKAFVREFGCTPGEYRKRVSALGR,not soluble
14,MDCIRVTTIGYYHRDGDMRVTPGLLPKILNRECLKPLREDFFNLNIEVPDSGQGENNMVSFLDYISQTKCLEDAQPDFVTNKQILTALTGNKPFTIHAIHLKGTIFSFKSGEVRYQDTKNFGGAFEHFCTRTRNDEQLETDDTVRKAVFKAEIPRGNTQFYRVLYSGQIDAIDNEVDRKHYELKIMSQGLNEYFWKEKSCKFYWQSVFGNAPVLIIGSRSGQYSTQTTNNYPPYSLYKVEELKRDRIPSMAARCRKIPGRFGPAPPWKISEGEDNALYFLDLVKDNVINDGDCFSFTRTDENPDWDVKRDEESAAQFRDVVLQYLDR,not soluble
15,MDCMRKLDRVDMQLVKILSENSRLTYRELADILNTTRQRIARRIDKLKKLGIIRKFTIIPDIDKLGYMYAIVLIKSKVPSDADKVISEISDIEYVKSVEKGVGRYNIIVRLLLPKDIKDAENLISEFLQRIKNAENVEVILISEVRKFEII,soluble
16,MDDDDTFTCRIQYINDADPFATTSSSYLEPMRPVTFKFRLHECISDQLQDVIRTLRAPHKAGDSSLQVYRGLEGGGGELHTYLDNDMTLTDQQEELDILKADTRRCSLVLRTQTSLRVKTIIDKLLNCSGRDQRRALFSLKQIFQDDQDLVHEFVQNQGLDCMIRLGRTADQNHQNYILRALGQLMLYVDGMNGIIAHNGTIQWLYELLDSPFRLVVKTALKLLLVFIEYNDNNALLVLTAIQTVDKSKGQADWSGLMKVLTEKDSPDAETLVYGMTVVNKALHGIPDRVVILEPLHEFHPQFPQQFLHGNHQSGRIFNRLHLLQLITTISGLFAAKIFRRRFSWFRKIKRTRFRKKPTRVKVKAPPPSFPTLFSPTESKTMDFSEVAPQEPEPEKVAPPPPRAKIEDTGSGNSFADMLQKRAARSAEANRGTFEKKESEAEMQWKKAAENLEKRPLIINDLDFSQFHGVEYQQDPLQLARMAKMKEMAENGMRGGPVGVGVPPPPPPPSAIPLPPRLQGGIPPPPPLGIIPPPPPPGNLLMNGINRGDISPAANKGVLKLHWKPATVEQPDGIPSLKQKGSFWNTVDGAVPTFDAKKIVQLFETKKEKEAPVKKVAETKTQTLSVLPLKRSQAINIGLTKLPPINVIPAAIMKFDSLVLNKDGIEKILKTMMPSPKEIEEIEIKAAENPEMTLGNAEQLLLKLSQIPCLLERLRLWLFTLDYKNSEKDIAEPLMDMQLAMKEMEESRTFKVAMGMLLAIGNSLSGTDIKGFYLDYLTKASEVKDPVYKHTLTYHLAEYMVEHFSEGTDLYSEFGAVARSARVDYKELLDNLIRLEKDCKSSWECLATINVAQRIHQLKAIYTVTKNRWHSFLLYFGYSVDEIPNQTPNDVFKMVTEFSLEYRTTRDKILQQRKRLAEKRERNKTRGKIWALEGSSAEGGAGDAAPLRRRNHGPGTVAPVQNSQQRHDDMSKMLASMADDNNSLRRRPAGSNGVNGRNFGGSVKDLVDTESPEDEILNGLVKAATLQTDPRDQRRRARQFNRKSLRRTRTLKMVDGQLETNY,not soluble
17,MDDLEGKKCIGCQKPAKLRCPTCIKMSLPDAYFCDQSCFKAFWPIHKFSHSDVNGPYNPWPCYSFTGSLRPGRVTDRRPVPDHIPRPDYALHPQGVSLEERQSKSERVIKVLTDEEKEGLKVACKLGRECLNEAAKACGPGVTTEEIDRVVHEAAIERDCYPSPLGYYKFPKSCCTSVNEVICHGIPDMRKLENGDLCNVDVTVYHRGFHGDLNETFLVGDKVDEESRKLVKVTFECLQQAIAIVKPGVKFREIGNVIQKHANANGFSVVKGYCGHGIHRLFHTAPNVPHYAKNNATGVMKAGNSFTIEPMINAGTYHDDKWPDDWTAVTRDGRRSAQFEQTLLVTDTGCEILTKRDGNRPWFMDQIEQSY,soluble
18,MDDLQADDIKTSDENSAMVLLVDDQAMIGEAVRRGLAGHESIDFHFCADPHQAIAQAVQIKPTVILQDLVMPGLDGLTLVREYRSNPLTRDIPIIVLSTKEDPLIKSAAFAAGANDYLVKLPDNIELVARIRYHSRSYMTLLQRDEAYRALRVSQQQLLDTNLVLQRLMNSDGLTGLSNRRHFDEYLELEWRRATRDQAQLSLLMIDVDYFKAYNDNFGHLEGDEALRQVAKAIRNSCSRPSDLPARYGGEEFAMVLPNTSPGGARLLAEKLRQSVAGMNIPHIAPVPGSSLTVSIGVATVTPQVGQHSRQLILDADKGLYLAKNNGRNQVAAG,soluble
